Test results from patent EP4585618A1 (Jiangsu Hengrui Pharmaceuticals Co., Ltd., dated 2025).

Experiments:
[1] = target: T1, His-tagged ILT4 protein extracellular domain: ILT4-His (human, UniProt Q8N423 22-460); assay: phage ELISA
T1 construct: Expressed in 293 cells; also called human ILT4-His protein

[2] = target: T2, His-tagged ILT2 protein extracellular domain: ILT2-His (human, UniProt Q8NHL6 24-461); assay: phage ELISA
T2 construct: The entry is the whole construct, with the His tag; also called human ILT2 protein

[3] = target: T1, His-tagged ILT4 protein extracellular …; assay: ELISA, coated ILT4-His 1 µg/mL; Assay 1
[4] = target: T1, His-tagged ILT4 protein extracellular …; assay: ELISA, coated ILT4-His 1 µg/mL; Assay 2
[5] = target: T1, His-tagged ILT4 protein extracellular …; assay: ELISA, coated ILT4-His 1 µg/mL; Assay 3
[6] = target: T1, His-tagged ILT4 protein extracellular …; assay: ELISA, coated ILT4-His 1 µg/mL; Assay 4
[7] = target: T1, His-tagged ILT4 protein extracellular …; assay: ELISA, coated ILT4-His 1 µg/mL; Assay 5
[8] = target: T3, full-length human ILT4 protein overexpressed on cells (human, UniProt Q8N423 22-597); assay: flow cytometry competition on CHO-S/ILT4 cells; competitor CF647-labelled HLA-G tetramer; Assay 1
T3 construct: also called CHO-S/ILT4; ILT4 stably transfected cell strain

[9] = target: T3, full-length human ILT4 protein …; assay: flow cytometry competition on CHO-S/ILT4 cells; competitor CF647-labelled HLA-G tetramer; Assay 2
[10] = target: T3, full-length human ILT4 protein …; assay: flow cytometry competition on CHO-S/ILT4 cells; competitor CF647-labelled HLA-G tetramer; Assay 3
[11] = target: T3, full-length human ILT4 protein …; assay: flow cytometry competition on CHO-S/ILT4 cells; competitor CF647-labelled HLA-G tetramer; Assay 4
[12] = target: T3, full-length human ILT4 protein …; assay: flow cytometry (FACS) on CHO-S/ILT4 cells; Assay 1
[13] = target: T1, His-tagged ILT4 protein extracellular …; assay: SPR (Biacore), antibody captured on Protein A chip, ILT4-His as analyte, 1:1 model
[14] = target: T4, LILRA5-His (Acro, LI5-H82E1) (human, UniProt A6NI73 42-268); assay: ELISA, coated protein 1 µg/mL
T4 construct: Bought protein. 'Human' stands at the head of the list of coated proteins; not shown: His tag

[15] = target: T5, LILRA6-His (Acro, LI6-H82E2) (human, UniProt Q6PI73 24-447); assay: ELISA, coated protein 1 µg/mL
T5 construct: Bought protein. 'Human' stands at the head of the list of coated proteins; not shown: His tag

[16] = target: T2, His-tagged ILT2 protein extracellular …; assay: ELISA, coated protein 1 µg/mL
[17] = target: T6, His-tagged ILT3 protein extracellular domain: ILT3-His (human, UniProt Q8NHJ6 22-259); assay: ELISA, coated protein 1 µg/mL
T6 construct: The entry is the whole construct, with the His tag

[18] = target: T7, LILRB5-His (Acro, CDC-H5220) (human, UniProt O75023 24-458, limits assumed); assay: ELISA, coated protein 1 µg/mL
T7 construct: Bought protein. 'Human' stands at the head of the list of coated proteins; not shown: His tag

[19] = target: T8, LILRA1-His (Acro, LI1-H82E8) (human, UniProt O75019 17-461); assay: ELISA, coated protein 1 µg/mL
T8 construct: Bought protein. 'Human' stands at the head of the list of coated proteins; not shown: His tag

[20] = target: T9, LILRA2-His (Acro, LI2-H82E9) (human, UniProt Q8N149 24-449); assay: ELISA, coated protein 1 µg/mL
T9 construct: Bought protein. 'Human' stands at the head of the list of coated proteins; not shown: His tag

[21] = target: T10, LILRA3-His (Acro, LI3-H82E0) (human, UniProt Q8N6C8 24-439); assay: ELISA, coated protein 1 µg/mL
T10 construct: Bought protein. 'Human' stands at the head of the list of coated proteins; not shown: His tag

[22] = target: T11, LILRA4-His (SinoBiological, 16058-H08H) (human, UniProt P59901 24-446); assay: ELISA, coated protein 1 µg/mL
T11 construct: Bought protein. 'Human' stands at the head of the list of coated proteins; not shown: His tag

[23] = target: T1, His-tagged ILT4 protein extracellular …; assay: ELISA, coated protein 1 µg/mL, antibody 10 µg/mL
[24] = target: T4, LILRA5-His (Acro, LI5-H82E1); assay: ELISA, coated protein 1 µg/mL, antibody 10 µg/mL
[25] = target: T5, LILRA6-His (Acro, LI6-H82E2); assay: ELISA, coated protein 1 µg/mL, antibody 10 µg/mL
[26] = target: T2, His-tagged ILT2 protein extracellular …; assay: ELISA, coated protein 1 µg/mL, antibody 10 µg/mL
[27] = target: T6, His-tagged ILT3 protein extracellular …; assay: ELISA, coated protein 1 µg/mL, antibody 10 µg/mL
[28] = target: T7, LILRB5-His (Acro, CDC-H5220); assay: ELISA, coated protein 1 µg/mL, antibody 10 µg/mL
[29] = target: T8, LILRA1-His (Acro, LI1-H82E8); assay: ELISA, coated protein 1 µg/mL, antibody 10 µg/mL
[30] = target: T9, LILRA2-His (Acro, LI2-H82E9); assay: ELISA, coated protein 1 µg/mL, antibody 10 µg/mL
[31] = target: T10, LILRA3-His (Acro, LI3-H82E0); assay: ELISA, coated protein 1 µg/mL, antibody 10 µg/mL
[32] = target: T11, LILRA4-His (SinoBiological, 16058-H08H); assay: ELISA, coated protein 1 µg/mL, antibody 10 µg/mL

T3 sequence (Q8N423 other isoform, or with tags, fused parts or gaps limits assumed): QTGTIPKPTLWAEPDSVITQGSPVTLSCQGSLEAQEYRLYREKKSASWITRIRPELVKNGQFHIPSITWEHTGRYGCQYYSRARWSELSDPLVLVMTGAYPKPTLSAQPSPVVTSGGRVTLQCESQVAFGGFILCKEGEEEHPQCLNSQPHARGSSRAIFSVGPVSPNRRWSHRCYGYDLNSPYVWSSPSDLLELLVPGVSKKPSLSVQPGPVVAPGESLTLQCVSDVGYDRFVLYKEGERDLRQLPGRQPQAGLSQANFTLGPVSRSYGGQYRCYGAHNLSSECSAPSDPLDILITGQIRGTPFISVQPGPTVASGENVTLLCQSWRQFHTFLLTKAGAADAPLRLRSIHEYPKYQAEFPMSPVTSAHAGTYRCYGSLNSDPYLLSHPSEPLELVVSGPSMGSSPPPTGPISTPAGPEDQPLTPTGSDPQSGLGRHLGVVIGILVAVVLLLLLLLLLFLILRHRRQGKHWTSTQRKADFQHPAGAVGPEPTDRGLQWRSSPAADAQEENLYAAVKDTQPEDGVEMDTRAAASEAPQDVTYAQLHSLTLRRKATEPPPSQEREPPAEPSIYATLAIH
T2 sequence (Q8NHL6 other isoform, or with tags, fused parts or gaps): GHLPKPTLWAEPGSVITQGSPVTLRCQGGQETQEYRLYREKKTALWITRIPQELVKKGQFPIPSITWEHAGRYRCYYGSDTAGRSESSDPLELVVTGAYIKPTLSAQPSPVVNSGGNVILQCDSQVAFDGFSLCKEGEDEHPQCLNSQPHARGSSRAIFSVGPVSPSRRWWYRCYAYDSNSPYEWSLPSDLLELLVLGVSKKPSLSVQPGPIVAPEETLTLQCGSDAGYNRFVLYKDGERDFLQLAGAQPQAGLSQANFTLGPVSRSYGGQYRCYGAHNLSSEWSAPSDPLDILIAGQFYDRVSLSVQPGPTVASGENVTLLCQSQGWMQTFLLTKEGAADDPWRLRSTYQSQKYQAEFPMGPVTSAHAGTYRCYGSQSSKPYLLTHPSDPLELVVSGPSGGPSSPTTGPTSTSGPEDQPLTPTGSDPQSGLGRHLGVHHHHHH
T1 sequence (Q8N423 other isoform, or with tags, fused parts or gaps limits assumed): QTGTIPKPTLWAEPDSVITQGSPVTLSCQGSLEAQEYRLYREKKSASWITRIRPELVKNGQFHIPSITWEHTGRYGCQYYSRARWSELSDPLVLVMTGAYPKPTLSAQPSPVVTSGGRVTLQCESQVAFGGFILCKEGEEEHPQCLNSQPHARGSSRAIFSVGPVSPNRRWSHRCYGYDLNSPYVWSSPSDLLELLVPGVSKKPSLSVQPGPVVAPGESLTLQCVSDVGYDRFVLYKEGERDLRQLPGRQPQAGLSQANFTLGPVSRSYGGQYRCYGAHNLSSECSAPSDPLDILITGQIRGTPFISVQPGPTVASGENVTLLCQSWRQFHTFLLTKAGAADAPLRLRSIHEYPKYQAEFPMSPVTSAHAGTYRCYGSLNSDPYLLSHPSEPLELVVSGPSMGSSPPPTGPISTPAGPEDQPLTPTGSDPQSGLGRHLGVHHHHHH
T4 sequence (A6NI73 42-268 limits assumed): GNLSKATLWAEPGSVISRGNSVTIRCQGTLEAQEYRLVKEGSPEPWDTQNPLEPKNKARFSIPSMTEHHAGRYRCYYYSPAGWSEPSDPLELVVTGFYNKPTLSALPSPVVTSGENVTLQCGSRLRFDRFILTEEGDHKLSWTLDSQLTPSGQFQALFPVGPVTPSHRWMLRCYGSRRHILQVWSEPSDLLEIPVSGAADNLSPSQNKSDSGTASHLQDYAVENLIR
T5 sequence (Q6PI73 24-447 limits assumed): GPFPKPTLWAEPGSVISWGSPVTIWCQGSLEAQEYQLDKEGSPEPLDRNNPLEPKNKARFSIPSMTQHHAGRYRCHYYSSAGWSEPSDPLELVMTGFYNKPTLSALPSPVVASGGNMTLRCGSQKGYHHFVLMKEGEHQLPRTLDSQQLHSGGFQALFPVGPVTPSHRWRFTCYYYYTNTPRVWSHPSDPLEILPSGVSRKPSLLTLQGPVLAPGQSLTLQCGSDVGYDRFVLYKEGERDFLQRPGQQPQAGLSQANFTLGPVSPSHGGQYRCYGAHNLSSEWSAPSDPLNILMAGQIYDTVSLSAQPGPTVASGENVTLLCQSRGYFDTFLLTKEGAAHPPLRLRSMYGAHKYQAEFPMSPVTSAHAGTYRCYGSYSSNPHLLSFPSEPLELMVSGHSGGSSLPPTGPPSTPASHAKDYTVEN
T11 sequence (P59901 24-446 limits assumed): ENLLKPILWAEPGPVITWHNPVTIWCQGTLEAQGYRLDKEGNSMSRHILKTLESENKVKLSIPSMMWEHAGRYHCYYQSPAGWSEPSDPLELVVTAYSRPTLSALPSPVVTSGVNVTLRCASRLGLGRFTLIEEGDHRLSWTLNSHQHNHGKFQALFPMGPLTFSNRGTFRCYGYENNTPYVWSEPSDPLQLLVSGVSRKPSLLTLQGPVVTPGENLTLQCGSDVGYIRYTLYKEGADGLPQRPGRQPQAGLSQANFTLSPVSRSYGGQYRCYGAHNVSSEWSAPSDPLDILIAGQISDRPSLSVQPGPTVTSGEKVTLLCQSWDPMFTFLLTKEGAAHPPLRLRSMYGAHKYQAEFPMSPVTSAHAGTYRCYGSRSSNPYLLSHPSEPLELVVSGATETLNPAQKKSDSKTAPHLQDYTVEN
T9 sequence (Q8N149 24-449 limits assumed): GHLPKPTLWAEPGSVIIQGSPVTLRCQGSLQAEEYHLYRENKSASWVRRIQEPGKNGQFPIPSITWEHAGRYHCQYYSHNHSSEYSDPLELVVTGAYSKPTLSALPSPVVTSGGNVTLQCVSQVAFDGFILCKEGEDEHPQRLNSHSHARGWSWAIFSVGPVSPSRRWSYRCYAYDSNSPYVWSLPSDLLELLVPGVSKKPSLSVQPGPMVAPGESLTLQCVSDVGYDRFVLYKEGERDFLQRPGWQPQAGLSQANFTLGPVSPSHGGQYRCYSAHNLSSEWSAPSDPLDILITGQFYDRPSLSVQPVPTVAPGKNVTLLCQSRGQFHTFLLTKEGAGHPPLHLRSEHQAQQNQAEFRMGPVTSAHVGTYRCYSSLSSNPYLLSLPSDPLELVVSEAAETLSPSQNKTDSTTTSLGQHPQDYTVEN
T7 sequence (O75023 24-458 limits assumed): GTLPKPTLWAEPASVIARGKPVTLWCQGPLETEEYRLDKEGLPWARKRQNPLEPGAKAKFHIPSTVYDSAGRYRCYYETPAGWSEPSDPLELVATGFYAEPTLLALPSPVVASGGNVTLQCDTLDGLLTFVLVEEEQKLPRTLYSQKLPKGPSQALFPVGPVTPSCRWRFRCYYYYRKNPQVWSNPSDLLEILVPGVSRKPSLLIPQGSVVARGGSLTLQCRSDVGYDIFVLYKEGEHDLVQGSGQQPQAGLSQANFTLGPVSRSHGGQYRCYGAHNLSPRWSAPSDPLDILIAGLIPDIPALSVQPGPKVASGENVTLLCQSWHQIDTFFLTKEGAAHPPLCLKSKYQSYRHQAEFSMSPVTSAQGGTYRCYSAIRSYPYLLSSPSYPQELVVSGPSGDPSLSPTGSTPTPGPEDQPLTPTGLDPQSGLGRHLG
T8 sequence (O75019 17-461 limits assumed): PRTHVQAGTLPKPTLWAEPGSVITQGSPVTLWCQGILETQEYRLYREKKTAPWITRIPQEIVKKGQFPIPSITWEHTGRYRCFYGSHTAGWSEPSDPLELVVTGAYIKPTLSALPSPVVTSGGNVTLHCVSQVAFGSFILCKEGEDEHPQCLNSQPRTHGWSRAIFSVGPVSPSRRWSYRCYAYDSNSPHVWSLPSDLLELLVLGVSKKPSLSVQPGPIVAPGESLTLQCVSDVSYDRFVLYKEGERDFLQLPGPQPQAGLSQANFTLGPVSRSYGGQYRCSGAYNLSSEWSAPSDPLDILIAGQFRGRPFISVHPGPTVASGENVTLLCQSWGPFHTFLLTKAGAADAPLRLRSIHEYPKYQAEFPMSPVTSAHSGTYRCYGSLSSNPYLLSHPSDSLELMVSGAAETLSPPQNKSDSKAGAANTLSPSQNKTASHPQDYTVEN
T10 sequence (Q8N6C8 24-439 limits assumed): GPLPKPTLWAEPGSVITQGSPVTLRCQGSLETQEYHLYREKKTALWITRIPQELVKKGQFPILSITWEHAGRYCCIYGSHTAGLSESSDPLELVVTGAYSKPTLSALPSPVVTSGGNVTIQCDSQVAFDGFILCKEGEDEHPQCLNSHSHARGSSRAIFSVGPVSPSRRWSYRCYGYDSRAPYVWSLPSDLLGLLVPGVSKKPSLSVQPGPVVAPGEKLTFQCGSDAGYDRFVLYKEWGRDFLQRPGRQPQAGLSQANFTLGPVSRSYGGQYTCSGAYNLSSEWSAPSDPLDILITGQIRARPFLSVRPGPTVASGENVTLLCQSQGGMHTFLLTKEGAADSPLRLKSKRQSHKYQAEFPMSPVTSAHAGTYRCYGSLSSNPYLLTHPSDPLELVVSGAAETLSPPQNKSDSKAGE

B1: P2 (fully human-derived antibody clone from phage library screening) (antibody, V domains shown)
VH: QVQLVQSGAEVKKPGSSVKVSCKASGYTFTSYDISWVRQAPGQGLEWMGGIIPIFGTANYAQKFQGRVTITADESTSTAYMELSSLRSEDTAVYYCTAGIFLATAYWGQGTLVTVSS
VL: DIQMTQSPSSMSASVGDRVTISCQASQDINNYLNWYQQRPGQAPKLLIYDASTLETGVPSRFSGSGSGTYFTLTITSLQPADVATYYCQQYENVPITFGQGTRLEIK
- binding result [1]: binds
- binding result [2]: no binding

B2: positive control antibody JTX (sequences from WO2019126514A2) (antibody, human IgG4 S228P, kappa, V domains shown)
VH: QITLKESGPTLVKPTQTLTLTCTFSGFSLNTYAMGVSWIRQPPGKALEWLASIWWNGNKYNNPSLKSRLTVTKDTSKNQVVLTMTNMDPVDTATYYCAHSRIIRFTDYVMDAWGQGTLVTVSS
VL: DIQMTQSPSSLSTSVGDRVTITCRASEDIYNDLAWYQQKPGKAPKLLIYNANSLHTGVASRFSGSGSGTDFTFTISSLQPEDVATYFCQQYYDYPLTFGQGTKLEIKR
notes: also called JTX-8064
- EC50 [3]: 0.0826 µg/mL
- EC50 [4]: 0.0826 µg/mL
- Top [4]: 1.7 absorbance at 450 nm
- EC50 [5]: 0.0293 µg/mL
- EC50 [6]: 0.083 µg/mL
- EC50 [7]: 0.0801 µg/mL
- Top [7]: 1.14 absorbance at 450 nm
- IC50 [8]: 0.022 µg/mL
- IC50 [9]: 0.12 µg/mL
- IC50 [10]: 0.12 µg/mL
- IC50 [11]: 0.061 µg/mL

B3: positive control antibody MK (sequences from WO2018187518A1) (antibody, human IgG4 S228P, lambda, V domains shown)
VH: EVQLQQWGAGLLKPSETLSLTCAVYGGSFSGYYWSWIRQPPGKGLEWIGEINHAGSTNYNPSLKSRVTISVDTSKNQFSLKLSSVTAADTAVYYCARLPTRWVTTRYFDLWGRGTLVTVSS
VL: ESVLTQPPSVSGAPGQRVTISCTGSSSNIGAGYDVHWYQQLPGTAPKLLIYGDSNRPSGVPDRFSVSKSGASASLAITGLQAEDEADYYCQSFDNSLSAYVFGGGTQLTVLG
- EC50 [12]: 0.031 µg/mL
- Kd [13]: 19.1 nM
- koff [13]: 0.00863 s⁻¹
- kon [13]: 452000 M⁻¹ s⁻¹
- IC50 [8]: 0.031 µg/mL
- IC50 [9]: 0.138 µg/mL
- IC50 [10]: 0.138 µg/mL
- IC50 [11]: 0.092 µg/mL

B4: chimeric antibody ChP1-C4 (antibody, human IgG4 S228P, kappa, F234A L235A, V domains shown)
VH: QVQLKQSGAELVRPGASVKLSCKASGYSFTDYYINWVKQRPGQGLEWIARIYPGNDNTYYNEKFKDKATLTADSSSSTAYMQLSSLTSEDSAVYFCTRSQDGYYEENAMDYWGQGTSVTVSS
VL: DIQMTQSPASLSVSVGETVTITCRASENIYSNLAWYQQRQGKSPQLLVYAATNLADGVPFRFSGSGSGTQYSLKINSLQSEDFGSYYCQQFWGSPHTFGGGTKLEIKR
notes: Murine variable regions with hIgG4(LALA) and CL constant regions; also called M P1-C4
- EC50 [3]: 0.0643 µg/mL

B5: chimeric antibody ChP1-D7 (antibody, human IgG4 S228P, kappa, F234A L235A, V domains shown)
VH: QIQLVQSGPDLKKPGETVKISCKASGYTFTTYGMNWVKQAPGKALKWMGWINTYSGVPTYADDFKGRFAFSLETSATTAYLQINNLKNEDTATYFCARRTDYDGYVMDCWGQGTSVTVSS
VL: DIVMSQSPSSLAVSIGEKVTMSCKSSQSLFYSGNQKNYLAWYLQKPGQSPKLLLYWASTRESGVPDRFTGSGSGTDFTLTISSVMAEDLAVYYCQQYFSYPPTFGGGTKLEIKR
notes: Murine variable regions with hIgG4(LALA) and CL constant regions; also called M P1-D7
- EC50 [5]: 0.0292 µg/mL

B6: humanized antibody huP2-E3 (antibody, human IgG4 S228P, kappa, F234A L235A, V domains shown)
VH: EVQLVQSGAEVKKPGASVKVSCKASGYTFTDYYMNWVKQAPGQRLEWMGDINPNSGGTSYNQKFKGRVTITVDKSGSTAYMELSSLRSEDTAVYYCARGGVTTVVATYWYFDVWGQGTTVTVSS
VL: DIQMTQSPSSLSASVGDRVTITCRASENIYSNLAWYQQKPGKSPKLLVYAATNVADGVPSRFSGSGSGTDYTLTISSLQPEDFATYYCQQFWDTPFTFGQGTKLEIKR
notes: Full chains; The constant region is hIgG1(LALA) or hIgG4(LALA) with a kappa CL; also called P2-E3H6L2
- binding result [14]: no binding (tested: 10 µg/mL)
- binding result [15]: no binding (tested: 10 µg/mL)
- binding result [16]: no binding (tested: 10 µg/mL)
- binding result [17]: no binding (tested: 10 µg/mL)
- binding result [18]: no binding (tested: 10 µg/mL)
- binding result [19]: no binding (tested: 10 µg/mL)
- binding result [20]: no binding (tested: 10 µg/mL)
- binding result [21]: no binding (tested: 10 µg/mL)
- binding result [22]: no binding (tested: 10 µg/mL)
- absorbance at 450 nm [23]: 1.04 absorbance at 450 nm
- absorbance at 450 nm [24]: 0.0466 absorbance at 450 nm
- absorbance at 450 nm [25]: 0.047 absorbance at 450 nm
- absorbance at 450 nm [26]: 0.0541 absorbance at 450 nm
- absorbance at 450 nm [27]: 0.0699 absorbance at 450 nm
- absorbance at 450 nm [28]: 0.0523 absorbance at 450 nm
- absorbance at 450 nm [29]: 0.0532 absorbance at 450 nm
- absorbance at 450 nm [30]: 0.055 absorbance at 450 nm
- absorbance at 450 nm [31]: 0.0476 absorbance at 450 nm
- absorbance at 450 nm [32]: 0.0605 absorbance at 450 nm
- EC50 [12]: 0.0307 µg/mL
- Kd [13]: 1.26 nM
- koff [13]: 0.00127 s⁻¹
- kon [13]: 1.01e+06 M⁻¹ s⁻¹
- IC50 [8]: 0.012 µg/mL

B7: chimeric antibody ChP1-E11 (antibody, human IgG4 S228P, kappa, F234A L235A, V domains shown)
VH: EVQLQQSGPELVKPGASVKMSCQASGYTFTDYSIHWVKQSRGASLEWIGYINPNNGVTNYNQKFKGKATLTVNKSSSTAYMELRSLTSEDSAVYYCAREGDSVTTIVVHWYFDVGGTGTTVTVSS
VL: DIQMTQSPASLSVSLGETVTITCRASENIYSNLVWYQQKQGKFPQLLVYAAINLVDGVPSRFSGSGSGTQYSLKINSLQSEDFGSYYCQQFWDTPLTFGAGTKLEIKR
notes: Murine variable regions with hIgG4(LALA) and CL constant regions; also called M P1-E11
- EC50 [6]: 0.041 µg/mL
